Drawing on PMC10315481, this text covers stoichiometry N for one substance.

The target in this assay is globupain, wild-type zymogen (proenzyme) (unclassified Archaeoglobus species (metagenome)). The assay is described as follows: SEC + AUC; SEC: Superdex 75 10/300 GL, 50 mM potassium phosphate pH 7.0, 150 mM NaCl, 500 uL of globupain at 1 mg/mL, calibrated with proteins of known molecular weight; AUC (p-0016): sedimentation velocity, 20°C, 50,000 rpm, 50 mM potassium phosphate pH 7.0, 150 mM NaCl, 1 mM EDTA, c(s) distribution in ….

What is called stoichiometry N is a count of units in the complex or per binding partner.

Take “globupain, wild-type zymogen (proenzyme)”: the stoichiometry N is 2.
